Data on 5 substances can be found in US20200190151A1, “KV1.3-BLOCKING VENOM PEPTIDE VARIANTS AND RELATED USES” (The Scripps Research Institute, priority 2016, published 2020).

Test [1] concerns the target T1, Kv1.6 (Homo sapiens, UniProt P17658).
T1 construct: expressed in transfected cells; host or cells: HEK293
Description: Patch clamp on HEK293 cells expressing Kv1.6. Type of test: cell-based. The protocol: (§1) The variegated region of each variant was extracted based on the known flanking sequences. The ratio between number of unique toxins and count of all reads represented the diversity of a selected library. Highly enriched variants versus those that were not enriched were chosen and their affinity to Kv1.3 were assessed and ranked. In general, the enrichment factor of a variant is positively correlated with its affinity to Kv1.3 (FIG. 4). […] To test the critical property of specificity, patch clamp analysis of S1-2 was also carried out on HEK293 cells expressing other Kv1 family members including Kv1.1 through Kv1.7 and the hERG channel.
(§2) Electrophysiology recording: HEKA EPC 10 USB patch clamp amplifier (from HEKA Elektronik, Germany) was used for the whole cell recording. A cover slip with abundant single HEK293 Kv1.3 stable cells on the surface was removed and placed into a continuously perfused (approximately 1-2 ml/minute) recording chamber mounted on an inverted microscope. The Kv1.3 current was recorded from single cell using standard whole cell recording techniques. The cell was voltage clamped at a holding potential of −80 mV. Outward potassium currents were measured using the whole-cell configuration of the patch clamp technique at a test potential of 40 mV from a holding potential of −80 mV. Current records were acquired at 2-5 KHz and filtered at 1-2 KHz. […]

Test [2] addresses T2, Kv1.1 (Homo sapiens, UniProt Q09470).
T2 construct: expressed in transfected cells; host or cells: HEK293
Put plainly: Patch clamp on HEK293 cells expressing Kv1.1. Type of test: cell-based. The method, then:
as §1, §2
(In general: Patch clamp records ionic current or voltage across a cell membrane.)

For test [3], the target named is T3, Kv1.3 channel (Homo sapiens, UniProt P22001).
T3 construct: expressed in transfected cells
T3 sequence (P22001 whole entry): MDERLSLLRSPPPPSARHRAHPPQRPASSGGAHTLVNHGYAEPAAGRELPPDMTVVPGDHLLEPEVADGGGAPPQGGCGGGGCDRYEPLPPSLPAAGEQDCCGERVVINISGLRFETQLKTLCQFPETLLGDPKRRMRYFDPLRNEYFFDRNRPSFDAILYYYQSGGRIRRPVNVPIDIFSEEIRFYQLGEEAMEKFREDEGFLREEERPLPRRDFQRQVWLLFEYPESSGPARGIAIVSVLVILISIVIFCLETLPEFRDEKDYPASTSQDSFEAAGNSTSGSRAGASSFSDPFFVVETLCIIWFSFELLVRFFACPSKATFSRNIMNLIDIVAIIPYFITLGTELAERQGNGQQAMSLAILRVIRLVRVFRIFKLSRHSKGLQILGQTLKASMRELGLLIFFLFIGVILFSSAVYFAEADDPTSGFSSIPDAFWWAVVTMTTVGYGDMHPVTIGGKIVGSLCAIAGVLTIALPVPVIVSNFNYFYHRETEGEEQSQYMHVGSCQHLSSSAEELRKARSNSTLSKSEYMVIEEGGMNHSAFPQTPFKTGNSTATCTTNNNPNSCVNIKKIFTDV
Put plainly: Whole-cell patch clamp electrophysiology, HEK293 Kv1.3 stable cells. The format is cell-based. The method, then: as §1, §2

For test [4], the system named is Kv1.3 channel. The format is cell-based, human.
Kv1.3 channel, sequence (P22001 53-575 limits assumed): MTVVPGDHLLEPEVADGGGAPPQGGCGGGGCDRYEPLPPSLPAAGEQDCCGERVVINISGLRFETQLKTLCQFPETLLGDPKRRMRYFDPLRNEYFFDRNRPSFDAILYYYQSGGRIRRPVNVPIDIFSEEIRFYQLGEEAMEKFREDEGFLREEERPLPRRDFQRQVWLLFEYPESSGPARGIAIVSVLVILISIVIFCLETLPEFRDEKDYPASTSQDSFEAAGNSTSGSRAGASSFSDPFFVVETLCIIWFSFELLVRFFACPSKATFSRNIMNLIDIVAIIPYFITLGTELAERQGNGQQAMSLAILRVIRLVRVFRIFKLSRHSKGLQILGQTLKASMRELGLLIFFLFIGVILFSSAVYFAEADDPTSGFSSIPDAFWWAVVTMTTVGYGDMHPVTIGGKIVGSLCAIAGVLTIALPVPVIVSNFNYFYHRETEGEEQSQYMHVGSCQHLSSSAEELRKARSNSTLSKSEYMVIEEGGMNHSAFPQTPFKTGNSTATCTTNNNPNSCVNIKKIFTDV
Setting [5] is: lentivirus encoding membrane tethered peptide.

Entries after “also recorded” stand apart in the source; their conditions may differ. Like-named read-outs stand apart in the source and are kept apart here.

T2 sequence (Q09470 whole entry): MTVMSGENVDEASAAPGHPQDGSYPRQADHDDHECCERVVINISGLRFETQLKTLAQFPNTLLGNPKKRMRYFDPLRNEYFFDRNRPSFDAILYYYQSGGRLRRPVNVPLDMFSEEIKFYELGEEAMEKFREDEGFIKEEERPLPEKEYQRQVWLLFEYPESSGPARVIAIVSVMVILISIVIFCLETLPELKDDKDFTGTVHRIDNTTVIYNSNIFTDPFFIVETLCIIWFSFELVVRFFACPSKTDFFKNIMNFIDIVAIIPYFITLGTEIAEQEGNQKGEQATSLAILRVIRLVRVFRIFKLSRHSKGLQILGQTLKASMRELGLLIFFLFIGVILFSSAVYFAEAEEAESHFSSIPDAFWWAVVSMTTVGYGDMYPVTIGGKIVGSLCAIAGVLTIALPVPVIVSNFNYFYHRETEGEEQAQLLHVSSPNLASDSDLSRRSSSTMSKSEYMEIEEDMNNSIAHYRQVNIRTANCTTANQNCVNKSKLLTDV
T1 sequence (P17658 whole entry): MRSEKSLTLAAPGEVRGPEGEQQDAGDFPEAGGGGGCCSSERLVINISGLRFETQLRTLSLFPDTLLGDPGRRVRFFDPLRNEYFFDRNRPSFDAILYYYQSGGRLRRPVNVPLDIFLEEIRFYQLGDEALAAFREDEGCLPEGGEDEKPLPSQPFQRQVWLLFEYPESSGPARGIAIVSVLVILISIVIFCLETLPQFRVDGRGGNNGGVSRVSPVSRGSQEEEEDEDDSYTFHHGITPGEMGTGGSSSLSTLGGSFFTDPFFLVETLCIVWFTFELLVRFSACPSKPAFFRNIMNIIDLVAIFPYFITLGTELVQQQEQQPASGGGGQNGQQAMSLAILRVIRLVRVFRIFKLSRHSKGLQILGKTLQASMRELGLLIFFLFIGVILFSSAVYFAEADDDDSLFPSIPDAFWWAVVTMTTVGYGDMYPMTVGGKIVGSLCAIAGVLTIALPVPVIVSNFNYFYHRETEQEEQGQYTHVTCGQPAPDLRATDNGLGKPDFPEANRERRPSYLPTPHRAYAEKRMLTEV

As to ShK, the “Effect on Kv1.6, in words” value in test [1] was “comparable inhibition”. Further, the “Effect on Kv1.1, in words” value in test [2] is “comparable inhibition”. Besides, in test [3], the “Block / inhibition of Kv1.3 channel, in words” value is given as “comparable inhibition”. Moreover, the “Activation of tdTomato reporter in Kv1.3 reporter cells, in words” value (shortened to “Activation of tdTomato reporter”) in test [4] (setting [5]) is “stimulated the Kv1.3 reporter cells to express tdTomato fluorescent protein”.

With Anuroctoxin, the “Activation of tdTomato reporter” value in test [4] (setting [5]) is given as “stimulated the Kv1.3 reporter cells to express tdTomato fluorescent protein”.

For Vc1.1, the “Activation of tdTomato reporter” value in test [4] is “no activity”.

As to “Exendin-4: GLP-1 receptor targeting peptide, negative control lentivirus”, the “Activation of tdTomato reporter” value in test [4] (setting [5]) is “no activity”.

With “CllTx1 (ITINVKCTSPQQCLRPCKDRFGQHAGGKCINGKCKCYP)”, in test [3], the “Block / inhibition of Kv1.3 channel, in words” value was “strongly blocked; also recorded: potently blocked”.
